Measurements taken from patent publication US20180312579A1 (Genentech, published 2018).

T1: recombinant human RSPO3 (human, UniProt Q9BXY4 22-272)
T1 construct: also called rhRSPO3; hRSPO3
T1 sequence: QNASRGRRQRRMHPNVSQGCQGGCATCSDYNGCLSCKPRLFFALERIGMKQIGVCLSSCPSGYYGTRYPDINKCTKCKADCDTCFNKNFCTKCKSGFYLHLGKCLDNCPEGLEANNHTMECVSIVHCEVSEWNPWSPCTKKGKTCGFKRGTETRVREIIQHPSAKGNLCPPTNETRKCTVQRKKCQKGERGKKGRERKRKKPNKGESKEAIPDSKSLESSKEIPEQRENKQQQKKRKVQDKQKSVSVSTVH

T2: cynomolgus RSPO3 (cynomolgus, UniProt A0A2K5UTQ7 22-273)
T2 construct: also called cynoRSPO3; rcynoRSPO3
T2 sequence: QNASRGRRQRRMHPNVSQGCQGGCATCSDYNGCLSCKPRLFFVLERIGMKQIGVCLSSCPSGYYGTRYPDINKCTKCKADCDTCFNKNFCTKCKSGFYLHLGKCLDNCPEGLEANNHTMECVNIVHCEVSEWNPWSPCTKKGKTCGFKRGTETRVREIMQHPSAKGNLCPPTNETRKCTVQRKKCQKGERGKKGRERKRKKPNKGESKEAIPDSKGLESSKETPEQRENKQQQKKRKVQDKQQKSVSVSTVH

T3: mouse RSPO3 (mouse, UniProt Q2TJ95 22-277, limits assumed)
T3 construct: also called mRSPO3; murine RSPO3
T3 sequence (looked up): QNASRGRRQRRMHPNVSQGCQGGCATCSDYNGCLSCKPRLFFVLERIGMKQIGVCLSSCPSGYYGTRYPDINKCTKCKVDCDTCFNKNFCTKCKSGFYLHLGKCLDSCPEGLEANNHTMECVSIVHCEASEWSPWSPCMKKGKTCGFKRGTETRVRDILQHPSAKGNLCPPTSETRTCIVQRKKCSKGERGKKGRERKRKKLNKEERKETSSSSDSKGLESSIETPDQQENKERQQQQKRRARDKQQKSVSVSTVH

T4: human RSPO3 with C-terminal HA tag, stably expressed in 293 cells (human, UniProt Q9BXY4 22-272)
T4 construct: Whole open reading frame expressed in HEK-293 cells (high, medium, low); FFPE pellets; also called hRSPO3; RSPO3 Hi
T4 sequence: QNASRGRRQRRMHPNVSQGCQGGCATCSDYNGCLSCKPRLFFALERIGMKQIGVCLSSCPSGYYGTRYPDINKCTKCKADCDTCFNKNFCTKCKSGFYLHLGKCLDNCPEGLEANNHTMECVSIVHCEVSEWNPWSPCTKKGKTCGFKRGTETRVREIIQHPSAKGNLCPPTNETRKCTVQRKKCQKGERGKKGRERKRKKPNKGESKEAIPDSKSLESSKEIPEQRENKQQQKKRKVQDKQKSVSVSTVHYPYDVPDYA

T5: FLAG-tagged human RSPO3 (Genentech) (human, UniProt Q9BXY4 22-272)
T5 construct: also called hRSPO3; RSPO3 coated plates; not shown: FLAG tag
T5 sequence: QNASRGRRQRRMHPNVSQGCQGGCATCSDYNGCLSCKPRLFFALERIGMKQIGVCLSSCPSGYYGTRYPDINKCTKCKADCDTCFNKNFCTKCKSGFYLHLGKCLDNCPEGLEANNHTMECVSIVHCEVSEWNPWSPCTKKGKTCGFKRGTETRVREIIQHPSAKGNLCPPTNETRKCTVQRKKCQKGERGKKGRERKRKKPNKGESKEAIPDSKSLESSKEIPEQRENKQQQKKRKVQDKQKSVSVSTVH


Tests used:
recombinant human RSPO2 [1] = target: T6, recombinant human RSPO2 (human, UniProt Q6UXX9 22-243); assay: SPR (Biacore) with the Fab; table row RSPO2, Affinity (nM) Fab
T6 construct: Recombinant protein of the WNT reporter assays and of the Octet binning (R&D Systems; biotinylated for Octet); also called rhRSPO2; hRSPO2
Protocol: (§1) For kinetic measurements, two-fold serial dilutions of anti-RSPO Fabs were injected in HBS-P buffer (0.01M HEPES pH 7.4, 0.15M NaCl, 0.005% surfactant P20) at 25° C. with a flow rate of 30 μl/min. Association rates (kₒₙ) and dissociation rates (koff) were calculated using a simple one-to-one Langmuir binding model (BIAcore Evaluation Software version 3.2). The equilibrium dissociation constant (KD) was calculated as the ratio koff/kₒₙ.
(§2) Surface plasmon resonance was used to confirm binding specificities and affinities to human, mouse, and cynomolgus RSPOs. Fab fragments from antibody clones were digested, purified, and then assayed using a BIAcore™-2000 instrument for binding to recombinant proteins. Antibodies fell into three groups: those specific to RSPO2, those specific to RSPO3, and those with some degree of cross-reactivity (FIG. 5).

cynomolgus RSPO2 [2] = target: T7, cynomolgus RSPO2 (cynomolgus, UniProt G7PCH9 22-243); assay: as above
T7 construct: also called cynoRSPO2; rcynoRSPO2
Protocol: as §1, §2

mouse RSPO2 [3] = target: T8, mouse RSPO2 (mouse, UniProt Q8BFU0 22-205, limits assumed); assay: as above
T8 construct: also called mRSPO2
Protocol: as §1, §2

recombinant human RSPO3 [4] = target: T1, recombinant human RSPO3; assay: SPR (Biacore) with the Fab; table row RSPO3, Affinity (nM) Fab
Protocol: as §1, §2

cynomolgus RSPO3 [5] = target: T2, cynomolgus RSPO3; assay: as above
Protocol: as §1, §2

mouse RSPO3 [6] = target: T3, mouse RSPO3; assay: as above
Protocol: as §1, §2

recombinant human RSPO2 [7] = target: T6, recombinant human RSPO2; assay: cell-based or functional assay
recombinant human RSPO3 [8] = target: T1, recombinant human RSPO3; assay: cell-based or functional assay
cynomolgus RSPO3 [9] = target: T2, cynomolgus RSPO3; assay: cell-based or functional assay
mouse RSPO3 [10] = target: T3, mouse RSPO3; assay: cell-based or functional assay
cynomolgus RSPO2 [11] = target: T7, cynomolgus RSPO2; assay: cell-based or functional assay
mouse RSPO2 [12] = target: T8, mouse RSPO2; assay: cell-based or functional assay
[13] = target: T4, human RSPO3 with C-terminal HA tag, …; assay: IHC, FFPE 293 cell pellet, RSPO3 Hi; - = not significant staining
[14] = target: T9, FLAG-tagged human RSPO2 (Genentech) (human, UniProt Q6UXX9 22-243); assay: competitive binding ELISA: titrated against biotinylated RNF43-Flag (RNF43-ECD) binding to plate-coated hRSPO2; signal = bound RNF43, normalized OD
T9 construct: also called hRSPO2; RSPO2 coated plates; not shown: FLAG tag

[15] = target: T5, FLAG-tagged human RSPO3 (Genentech); assay: competitive binding ELISA: titrated against biotinylated RNF43-Flag (RNF43-ECD) binding to plate-coated hRSPO3; signal = bound RNF43, normalized OD

T7 sequence (G7PCH9 entry or part of it): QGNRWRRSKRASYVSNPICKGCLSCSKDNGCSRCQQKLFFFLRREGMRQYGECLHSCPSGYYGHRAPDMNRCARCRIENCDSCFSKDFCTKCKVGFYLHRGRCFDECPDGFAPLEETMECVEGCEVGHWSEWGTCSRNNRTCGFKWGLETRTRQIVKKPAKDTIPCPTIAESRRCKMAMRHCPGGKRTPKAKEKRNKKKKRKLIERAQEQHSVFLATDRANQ
T6 sequence (Q6UXX9 22-243): as the sequence (G7PCH9 entry or part of it) above, with A160V, P165L, A178T counted along it
T8 sequence (Q8BFU0 22-205 limits assumed): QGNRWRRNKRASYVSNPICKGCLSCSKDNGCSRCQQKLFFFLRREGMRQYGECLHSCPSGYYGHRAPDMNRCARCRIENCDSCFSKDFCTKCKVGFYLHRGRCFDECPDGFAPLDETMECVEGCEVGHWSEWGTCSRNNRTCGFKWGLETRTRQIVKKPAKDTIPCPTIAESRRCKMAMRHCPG
T9 sequence (Q6UXX9 22-243): as the sequence (G7PCH9 entry or part of it) above, with A160V, P165L, A178T counted along it

| Binder | Kd (recombinant human RSPO2 [1]) | Kd (cynomolgus RSPO2 [2]) | Kd (mouse RSPO2 [3]) | binding result (recombinant human RSPO3 [4]) | binding result (cynomolgus RSPO3 [5]) | binding result (mouse RSPO3 [6]) | binding result (mouse RSPO2 [3]) | Kd (recombinant human RSPO3 [4]) | Kd (cynomolgus RSPO3 [5]) | Kd (mouse RSPO3 [6]) | also measured |
| --- | --- | --- | --- | --- | --- | --- | --- | --- | --- | --- | --- |
| 1A1 (Fab, V domains shown, also called Fab of 1A1; 1A1 Fab) VH: EVQLVESGGGLVKPEGSLKLSCVASGFTFSDYFMSWVRQAPGQGLEWVAHIYTKTYNYATYYSGSVKGRFSISRDDSRNMVYLQMNNLRTEDTATYYCTTDEDWYFDFWGQGTQVTVSS VL: QPVLTQSPSVSASLGASVKLTCTLSSQHSTNYIEWYQQHPDKSPKFLMQVRDGSHSKGDGTPDRFSGSSSGAHRYLSISNLQLEDEAIYYCGLSDVSLYLFGSGTQLTLL | 2.9 nM | 1.4 nM | 3.6 nM | no binding | no binding | no binding | – | – | – | – | – |
| 11F11 (antibody, V domains shown, also called monoclonal antibody 11F11) VH: QVQLQQSGPQLVKPGFSVKFSCKASGITFTEYYVTWVKQRAGQGLEWVGDIDPENGDTDYNQKFQGKATITADKSSSTAYMELSSLTSEDSAVYYCATGYDYAFDSWGQGTLVTVSS VL: QPVLTQSPSASASLGASVKLTCTLSSQHSSYGITWLQQHPDKAPKCVMYLRSDGSHSKGDGIPDRFSGSSSGAHRYLSISNVQPEDEAIYFCVTYDSTVGVFGSGTQLTVP | – | – | – | – | – | – | – | – | – | – | IC50, WNT luciferase reporter, bivalent antibody (recombinant human RSPO2 [7]): 0.179 nM; IC50, WNT luciferase reporter, bivalent antibody (recombinant human RSPO3 [8]): > 500 nM; IC50, WNT luciferase reporter, bivalent antibody (cynomolgus RSPO3 [9]): > 500 nM; IC50, WNT luciferase reporter, bivalent antibody (mouse RSPO3 [10]): > 500 nM; IC50, WNT luciferase reporter, bivalent antibody (cynomolgus RSPO2 [11]): 1.9 nM; IC50, WNT luciferase reporter, bivalent antibody (mouse RSPO2 [12]): > 500 nM; binding result [13]: no binding |
| 11F11 (Fab, V domains shown, also called Fab of 11F11; 11F11 Fab) VH: QVQLQQSGPQLVKPGFSVKFSCKASGITFTEYYVTWVKQRAGQGLEWVGDIDPENGDTDYNQKFQGKATITADKSSSTAYMELSSLTSEDSAVYYCATGYDYAFDSWGQGTLVTVSS VL: QPVLTQSPSASASLGASVKLTCTLSSQHSSYGITWLQQHPDKAPKCVMYLRSDGSHSKGDGIPDRFSGSSSGAHRYLSISNVQPEDEAIYFCVTYDSTVGVFGSGTQLTVP | 63 nM | – | – | no binding | no binding | no binding | no binding | – | – | – | – |
| Fab 26E11 (Fab, V domains shown, Fab expressed in E. coli for crystallography; also called 26E11 Fab) VH: EVQLQESGPSLVKPSQTLSLTCSVTGDSITSGYWSWIRKFPGNKLEFMGYISFSGKTYYIPSLKSRVSITRDTSKNQYYLQLNSVTTEDTATYYCATYHGYGGPWFAYWGQGTLVTVSS VL: DIKMTQSPSSMYASLGERVTITCKASQDIDSYLSWFQQKPGKSPKTLIYLTNRLIDGVPSRFSGSGSGQDYSLTINSLEYEDMGIYYCLQYDEFPVTFGAGTRLEIK | 80 nM | 62 nM | 66 nM | – | – | – | – | 0.7 nM | 2.43 nM | 1.42 nM | – |
| 36D2 (Fab, V domains shown, also called Fab of 36D2; 36D2 Fab) VH: QIQLQESGPGLVKPSQSLSLTCSVTGNSITSSDWSWIRQFPGKKLEWMGYMNYGGGTYYNPSLENRISITRDTSKNQFFLHLKSVTTEDTATYYCARERPHPYAYFDVWGQGIQVTVSS VL: ELVFTQPQSVSGSLGQEISISCTRSSGNIGSNYVSWYQQQSSNKPRLLIYKFDQRPSGVPDRFSGSTDSSSNSGILTISRLQPEDEGDYYCLSGYDKYVFGSGTQLTLL | 6.3 nM | 11 nM | 5.5 nM | no binding | no binding | no binding | – | – | – | – | – |
| RNF43 (receptor, kept apart from the biotinylated tracer m34; not shown: FLAG tag and any linker to it) GFGRTGLVLAAAVESERSAEQKAIIRVIPLKMDPTGKLNLTLEGVFAGVAEITPAEGKLMQSHPLYLCNASDDDNLEPGFISIVKLESPRRAPRPCLSLASKARMAGERGASAVLFDITEDRAAAEQLQQPLGLTWPVVLIWGNDAEKLMEFVYKNQKAHVRIELKEPPAWPDY | – | – | – | – | – | – | – | – | – | – | IC50 (read off the curve) [14]: ~0.2 µg/mL; IC50 (read off the curve) [15]: ~0.5 µg/mL |
| 5E11 (Fab, V domains shown, also called Fab of 5E11; 5E11 Fab) VH: QVQLKQSGPGLVQPSQSLSITCTVSGFSLSSYAVHWVRQSPGEGLEWLGVIWSGGSTDYNAAFISRMSITKDNSKSQVFFKMNSLQADDTAIYFCARNDGYYYFDYWGQGTTLTVSS VL: DIVMTQSTSSLSASLGDRVTISCRASQDISNYLNWYQQKPDGTVKLLIYYTSRLHSGVPSRFSGSGSGTDYSLTISNLEKEDVATYFCQHGDTLPPTFGGGTKLEIK | – | – | – | – | – | – | no binding | 10.6 nM | 39 nM | 98 nM | binding result (cynomolgus RSPO2 [2]): no binding |
| 5C2 (Fab, V domains shown, also called Fab of 5C2; 5C2 Fab) VH: EVQLQESGPGLVAPSQSLSITCTVSGFSLTSYGVHWVRQPPGKGLEWLGVIWTGGSTNYNSALMSRLSISKDNSKSQVFLKMNSLQTDDTAMYYCARVDGYYYFDYWGQGTTLTVSS VL: DIVMTQSTSSLSASLGDRVTISCRASQDISNYLNWYQQKPDGTVKLLIYYTSRLHSGVPSRFSGSGSGTDYSLTISNLEPEDIATYFCQQGDTLPPTFGGGTKLEIK | – | – | – | – | – | – | no binding | 17 nM | 70 nM | 63 nM | binding result (cynomolgus RSPO2 [2]): no binding |
